Substrate in data set [1]: CC(C)=CCC[C@]1(C)C=Cc2c(O)c3c(c(CC=C(C)C)c2O1)O[C@]12C(=C[C@@H]4C[C@H]1C(C)(C)O[C@@]2(C/C=C(/C)C(=O)O)C4=O)C3=O
The conditions noted are these: Homo sapiens; 49.6 uM.

Substrate in data set [2]: CC(C)=CCC[C@]1(C)C=Cc2c(O)c3c(c(CC=C(C)C)c2O1)O[C@]12C(=C[C@@H]4C[C@H]1C(C)(C)O[C@@]2(C/C=C(/C)C(=O)O)C4=O)C3=O
The conditions noted are these: Homo sapiens; 24.8 uM.

Substrate in data set [3]: CC(C)=CCC[C@]1(C)C=Cc2c(O)c3c(c(CC=C(C)C)c2O1)O[C@]12C(=C[C@@H]4C[C@H]1C(C)(C)O[C@@]2(C/C=C(/C)C(=O)O)C4=O)C3=O
Particulars: Homo sapiens; 49.6 uM. This is another data set of the same source.
Description: Competitive inhibition of recombinant human PTP1B (1 to 322 residues) expressed in Escherichia coli assessed as substrate Km at 49.6 uM using pNPP as substrate by Lineweaver-Burk plot analysis

Substrate in data set [4]: CC(C)=CCC[C@]1(C)C=Cc2c(O)c3c(c(CC=C(C)C)c2O1)O[C@]12C(=C[C@@H]4C[C@H]1C(C)(C)O[C@@]2(C/C=C(/C)C(=O)O)C4=O)C3=O
Particulars: Homo sapiens; 12.4 uM.

Substrate in data set [5]: CC(C)=CCC[C@]1(C)C=Cc2c(O)c3c(c(CC=C(C)C)c2O1)O[C@]12C(=C[C@@H]4C[C@H]1C(C)(C)O[C@@]2(C/C=C(/C)C(=O)O)C4=O)C3=O
Particulars: Homo sapiens; 12.4 uM. This is another data set of the same source.
Description: Competitive inhibition of recombinant human PTP1B (1 to 322 residues) expressed in Escherichia coli assessed as substrate Km at 12.4 uM using pNPP as substrate by Lineweaver-Burk plot analysis

Substrate in data set [6]: CC(C)=CCC[C@]1(C)C=Cc2c(O)c3c(c(CC=C(C)C)c2O1)O[C@]12C(=C[C@@H]4C[C@H]1C(C)(C)O[C@@]2(C/C=C(/C)C(=O)O)C4=O)C3=O
Description: Competitive inhibition of recombinant human PTP1B (1 to 322 residues) expressed in Escherichia coli assessed as substrate Km at 24.8 uM using pNPP as substrate by Lineweaver-Burk plot analysis
Particulars: Homo sapiens; 24.8 uM. This is another data set of the same source.

The values below come from ChEMBL document CHEMBL4038281, “Competitive protein tyrosine phosphatase 1B (PTP1B) inhibitors, prenylated caged xanthones from Garcinia hanburyi and their inhibitory mechanism” (Bioorg Med Chem, 2017).

What is called Km is the substrate concentration at which the rate is half of its maximum.

B1: Tyrosine-protein phosphatase non-receptor type 1 (Homo sapiens), P18031 (protein)
chain: MEMEKEFEQIDKSGSWAAIYQDIRHEASDFPCRVAKLPKNKNRNRYRDVSPFDHSRIKLHQEDNDYINASLIKMEEAQRSYILTQGPLPNTCGHFWEMVWEQKSRGVVMLNRVMEKGSLKCAQYWPQKEEKEMIFEDTNLKLTLISEDIKSYYTVRQLELENLTTQETREILHFHYTTWPDFGVPESPASFLNFLFKVRESGSLSPEHGPVVVHCSAGIGRSGTFCLADTCLLLMDKRKDPSSVDIKKVLLEMRKFRMGLIQTADQLRFSYLAVIEGAKFIMGDSSVQDQWKELSHEDLEPPPEHIPPPPRPPKRILEPHNGKCREFFPNHQWVKEETQEDKDCPIKEEKGSPLNAAPYGIESMSQDTEVRSRVVGGSLRGAQAASPAKGEPSLPEKDEDHALSYWKPFLVNMCVATVLTAGAYLCYRFLFNSNT
Turning to B1, the Vmax (optical density/minute) in data set [1] was 13.7; in data set [2], 12.9; in data set [4], 12.6. The Michaelis-Menten constant (Km) came out at 12.7 mM in data set [3], 4.46 mM in data set [5] and 6.84 mM in data set [6].
